Measured values as given in patent US20250376498A1, “FUSION PROTEINS COMPRISING AN IMPROVED GLP-1 RECEPTOR AGONIST AND USES THEREOF” (Guangzhou Innogen Pharmaceutical Group Co., Ltd., priority 2022, published 2025).
“Also recorded” adds a separate entry of the source.

Legend:
Format in all cases: in vivo
db/db mice = test: Multiple subcutaneous injections in db/db mice (type 2 diabetes model); settings: for rate of fasting blood glucose reduction: 54 hours (day 21) after the 7th administration; for average rate of decline in random blood glucose levels: 72 hours after the 7th administration; for average rate of fasting blood glucose reduction: average over measurement time points
Description: The impact of multiple subcutaneous injections of YN-011 on reducing blood glucose levels was evaluated in db/db mice (Jackson Laboratories, 000642). The mice were kept under normal lighting conditions (12 hours light/12 hours dark) and at room temperature, with free access to food (normal rodent chow) and water. Db/db mice lack leptin receptors and spontaneously develop obesity, hyperglycemia, and pancreatic B-cell atrophy by 4 weeks of age.
Sixty affected db/db mice (33-45g) were divided into six groups of 10 mice each (5 males and 5 females) and administered 0 (PBS buffer control), 0.15, 0.3, 0.6, or 1.2 mg/kg of YN-011, or 0.3 mg/kg of Degludec via subcutaneous injection. Another group of wild-type mice (17-22g) with the same genetic background served as the normal control. The administration frequency was once every 3 days (Q3D), with a total of 9 doses administered over a period of 26 days. […] The duration of the hypoglycemic effect ranged from 34 to 72 hours within the dose range of 0.15-1.2 mg/kg.

obese rhesus monkeys = test: Obese rhesus monkeys, body weight; settings: for body weight decrease compared to baseline: at D28
Text: The obese rhesus monkeys used in this study were sourced from Sichuan Primate Biotechnology Co., Ltd. Fifteen male obese rhesus monkeys, aged 8-21 years (equivalent to 30-60 years in humans), with a body weight of 9.25-15.70 kg, fasting plasma glucose (FPG) levels between 5.50-8.58 mmol/L, and HbA1c levels between 4.5-5.0%, were selected. These monkeys were within the first year of disease onset and had not received any medication. Their liver and kidney functions were normal. The animals were stratified based on FPG levels and randomly assigned to different groups. The selected animals underwent an intravenous glucose tolerance test (IVGTT) to measure blood glucose and insulin levels before the administration of the test compounds. The experimental groups included a placebo group and two YN-011 treatment groups: YN-011 50 μg/kg and YN-011 25 μg/kg, with 5 animals in each group. The treatments were administered via subcutaneous injections (SC) once a week for 4 consecutive weeks, specifically on Day 0 (DO), Day 7 (D7), Day 14 (D14), and Day 21 (D21).

patients with T2DM = test: Phase IIb and III clinical trials of YN-011 in combination with metformin in T2DM; settings: 3 mg YN-011 in combination with metformin, 24 weeks
Description: The Phase IIb and III clinical trials were multicenter, randomized, double-blind, placebo-controlled studies evaluating the efficacy and safety of YN-011 in patients with T2DM who had inadequate glycemic control on metformin therapy. The Phase IIb trial aimed to explore dose response and evaluate safety (divided into three groups: YN-011 1 mg+metformin, YN-011 3 mg+metformin, and placebo+metformin), to determine the Recommended Phase 3 Dose (RP3D) for the Phase III trial, which aimed at efficacy confirmation . . .
The inclusion criteria for subjects in the Phase IIb and III studies of YN-011 in combination with metformin were primarily the same as those in Implementation Example 10, except for the following point: • Diagnosed with type 2 diabetes for at least 8 weeks (WHO 2000), and met one of the following conditions: • a) Received monotherapy with metformin for >8 weeks with a dose of ≥1500 mg/day or maximum tolerated dose (<1500 mg/day but ≥1000 mg/day) (eligible subjects could directly enter the run-in period). • b) Received monotherapy with metformin for <8 weeks with a dose of ≥1500 mg/day or maximum tolerated dose (<1500 mg/day but ≥1000 mg/day) (eligible subjects needed to enter the metformin dose stabilization period). • c) Received monotherapy with metformin at a dose <1500 mg/day and had not reached the maximum tolerated dose (eligible subjects needed to enter the metformin dose titration period and dose stabilization period).
Please refer to the exclusion criteria in Implementation Example 10 for the primary exclusion criteria for subjects in the Phase IIb and III studies of YN-011 in combination with metformin.
Primary efficacy endpoints included the comparison of YN-011 in combination with metformin versus placebo in combination with metformin in terms of the change in HbA1c levels from baseline after 12 weeks (Phase IIb) or 24 weeks (Phase III) of double-blind administration in patients with T2DM who had inadequate glycemic control on metformin therapy. Please refer to Implementation Example 10 for the secondary efficacy endpoints and safety assessments.

[1] = db/db mice, after the last administration (9th dose, day 26)

B1: YN-011: GLP-1 fusion protein of SEQ ID NO: 7: GLP-1 (A8G, G22E, R36G), linker peptide and IgG2/Fc domain (C222S, A330S, P331S) (protein)
chain: HGEGTFTSDVSSYLEEQAAKEFIAWLVKGGGSSGAPPPSGGGGSERKSCVECPPCPAPPVAGPSVFLFPPKPKDTLMISRTPEVTCVVVDVSHEDPEVQFNWYVDGVEVHNAKTKPREEQFNSTFRVVSVLTVVHQDWLNGKEYKCKVSNKGLPSSIEKTISKTKGQPREPQVYTLPPSREEMTKNQVSLTCLVKGFYPSDIAVEWESNGQPENNYKTTPPMLDSDGSFFLYSKLTVDKSRWQQGNVFSCSVMHEALHNHYTQKSLSLSPG
- rate of fasting blood glucose reduction (db/db mice; db/db mice, 0.15 mg/kg Q3D sc): 46.8%
- average rate of decline in random blood glucose levels (db/db mice; db/db mice, 0.15 mg/kg Q3D sc): 31.8%
- average rate of fasting blood glucose reduction (db/db mice; db/db mice, 0.15 mg/kg Q3D sc): 55.0%
- rate of fasting blood glucose reduction (db/db mice; db/db mice, 0.3 mg/kg Q3D sc): 55.6%
- average rate of decline in random blood glucose levels (db/db mice; db/db mice, 0.3 mg/kg Q3D sc): 46.2%
- average rate of fasting blood glucose reduction (db/db mice; db/db mice, 0.3 mg/kg Q3D sc): 61.8%
- serum free fatty acid levels (db/db mice; db/db mice, 0.6 mg/kg): significantly reduced
- rate of fasting blood glucose reduction (db/db mice; db/db mice, 0.6 mg/kg Q3D sc): 59.5%
- average rate of decline in random blood glucose levels (db/db mice; db/db mice, 0.6 mg/kg Q3D sc): 50.8%
- average rate of fasting blood glucose reduction (db/db mice; db/db mice, 0.6 mg/kg Q3D sc): 63.7%
- perirenal fat content (db/db mice; db/db mice, 1.2 mg/kg): significantly reduced
- rate of fasting blood glucose reduction (db/db mice; db/db mice, 1.2 mg/kg Q3D sc): 64.7%
- average rate of decline in random blood glucose levels (db/db mice; db/db mice, 1.2 mg/kg Q3D sc): 54.3%
- average rate of fasting blood glucose reduction (db/db mice; db/db mice, 1.2 mg/kg Q3D sc): 66.1%
- serum fructosamine levels (db/db mice; db/db mice, 1.2 mg/kg sc): significant reduction
- time the hypoglycemic effect (fasting blood glucose) can be maintained (db/db mice; db/db mice, 0.15, 0.3, 0.6 and 1.2 mg/kg every 3 days): at least 54 hours
- scapular fat content (db/db mice; db/db mice, 0.15, 0.3 and 0.6 mg/kg): significantly reduced
- serum fructosamine levels (db/db mice; db/db mice, 0.15-0.6 mg/kg sc): decreasing trend
- subcutaneous fat content, inguinal fat content and their ratios to body weight (db/db mice; db/db mice, 0.3, 0.6 and 1.2 mg/kg): significantly reduced
- random and fasting body weights (db/db mice; db/db mice, 0.3, 0.6 and 1.2 mg/kg (P<0.05, P<0.01, P<0.001)): significant decreases
- insulin secretion (serum insulin levels) (db/db mice; db/db mice, 3 hours after administration): significantly promoted insulin secretion
- fasting blood glucose levels versus model control group (db/db mice; db/db mice, Q3D sc, YN-011 all dose groups (P<0.001), Degludec 0.3 mg/kg): significant decrease; also recorded: significantly reduced fasting blood glucose levels
- epididymal fat content and its ratio to body weight (db/db mice; db/db mice, YN-011 treatment groups vs solvent control): significant decrease
- time the hypoglycemic effect was sustained (db/db mice; db/db mice, after repeated administration): 72 h
- fasting serum insulin levels (db/db mice; [1]): dose-dependently increased
- pancreatic-cell mass (db/db mice; [1]): significant increase
- time after administration at which therapeutic effect was observed (db/db mice; db/db mice, first administration, dose as low as 0.15 mg/kg): 3 h
- random plasma glucose (RPG) concentration (db/db mice; db/db mice, following the first subcutaneous administration, 0.15-1.2 mg/kg): significantly reduced
- serum triglyceride levels (db/db mice; db/db mice, multiple sc injections vs solvent control): significantly decreased
- RPG levels versus control group (db/db mice; db/db mice, repeated administration, all dose groups and time points except 0.15 mg/kg after the 4th administration (P=0.07)): significantly lower
- BW (obese rhesus monkeys; 25 μg/kg SC once a week, D 1 baseline value (before administration)): 12.72 kg
- BW (obese rhesus monkeys; 25 μg/kg SC once a week, D 7): 12.39 kg
- BW (obese rhesus monkeys; 25 μg/kg SC once a week, D 14): 12.16 kg
- BW (obese rhesus monkeys; 25 μg/kg SC once a week, D 21): 12.06 kg
- BW (obese rhesus monkeys; 25 μg/kg SC once a week, D 28): 11.84 kg
- BW (obese rhesus monkeys; 25 μg/kg SC once a week, D 35): 12.05 kg
- BW (obese rhesus monkeys; 25 μg/kg SC once a week, D 42): 12.03 kg
- BW compared to the placebo group (obese rhesus monkeys; 25 μg/kg, D14 and D21 (P<0.05)): significantly decreased
- body weight decrease compared to baseline (obese rhesus monkeys; 25 μg/kg): 6.17%
- BW (obese rhesus monkeys; 50 μg/kg SC once a week, D 1 baseline value (before administration)): 10.29 kg
- BW (obese rhesus monkeys; 50 μg/kg SC once a week, D 7): 9.85 kg
- BW (obese rhesus monkeys; 50 μg/kg SC once a week, D 14): 9.64 kg
- BW (obese rhesus monkeys; 50 μg/kg SC once a week, D 21): 9.63 kg
- BW (obese rhesus monkeys; 50 μg/kg SC once a week, D 28): 9.52 kg
- BW (obese rhesus monkeys; 50 μg/kg SC once a week, D 35): 9.79 kg
- BW (obese rhesus monkeys; 50 μg/kg SC once a week, D 42): 9.81 kg
- body weight decrease compared to baseline (obese rhesus monkeys; 50 μg/kg): 7.32%
- BW compared to the placebo group (obese rhesus monkeys; 50 μg/kg, from D7 to D28 (P<0.05 or P<0.01)): significantly or extremely significantly decreased
- incidence of hypoglycemia (<3.9 mmol/L) (patients with T2DM): 1.8%
- incidence of nausea (patients with T2DM): 7.0%
- reduction in FPG levels (patients with T2DM): 2.42%
- reduction in HbA1c levels (patients with T2DM): 1.8%
